This is an account of results in the supplement of paper PMC12636428.

For this series, the system named is Saccharomyces cerevisiae. Kind of series: transcriptional activation domain activity (GFP:mCherry ratio, weighted mean of sorted bins, harmonized to initial dataset scale) (arbitrary fluorescence ratio units); higher = stronger transcriptional activation. To be noted: beta-estradiol 1 µM; induction time 4 h. The essentials: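 Yeast diploids with a GFP reporter received barcoded protein tiles, fused to an estradiol-inducible synthetic transcription factor, at the URA3 locus. Cultures were diluted 1:5 into SC holding 1 uM beta-estradiol, incubated 4 hours at 30 °C, sorted into 8 bins on GFP:mCherry ratio, and sequenced for barcodes, with tiles under 50 reads discarded. Activation activity values come from the read-weighted mean of bin median fluorescence, averaged across barcodes and linearly placed on the initial dataset scale.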
For the sequence “KGVAVADRVVKFVAGYVAYATEQDAAKRPEGEEDVETPSSRFVTKLLRHLLSG”, the “transcriptional activation domain activity” value was found to be 56400. Under “EKQKKKRKRGKRRRRRRNEKEEKEGEEEEEEKQEAKEEAKEEAKEEAKKKEKK” stands 24600; under “GSIDITRLGLSFTIIGDLWRQVWWAMLGRDEFASLRKNVSYSRQSLQNLLVTM”, 61800. On to “ISCLGLTGWAGRFGSLYYIISMGGCSLSLGAMIAHVELKDSANCWWWFRYGFW”, for which the “transcriptional activation domain activity” value amounted to 77400. For “KLYSLGHILHSFIFVFSFFHFLISFLHSGFLCPRLFMFSSSLLFYYFLVGFFF”, the “transcriptional activation domain activity” value was 27700.

With “MWYFSRCTRWFLPLLLLPMPTAPPYFLLLFLLSFILHAKPCFYCVILITSLFI”, the “transcriptional activation domain activity” value turned out to be 60200. The figure for “IMYTSHHDPKHCFEETRDGTLKVHVIGDWLPRGIFGKMYILFAILRQLVLVLW” is 74900; for “GKVFILLRIWFFRQRSLSLYRTLLSSYLVERSPLFTSTMGVFGLDRKLLVKTA” it is 62500. Under “IKLMTLLYVFCRCSAVANVIYTVAITSSLDTLRVTYRISSVISLLCRTSVMMV” stands 43300; under “LPLLHRELFLKKYFEPIYGPWNPNIALASDQTGINSAFEIPITSAFSAHTEPK”, 41700.

As to “GKRAGAKGKKEASKKKKSQGSSRKGSGKGKKGNGGKGKNGGGKDKGKKSGKKG”, the “transcriptional activation domain activity” value came out at 21800. The figure for “GKRRFLNGFLSCLLPTCGISDPLLRYAACFTVIRCCFRSNVLVPAMMRALLET” is 45100; for “GQSGLGLEFNLPDFPLISIIFLIFFITLGLLWLVIVYLANFPDAFTLPVWLWH” it is 29500; for “QQPITYRKTIYDFFSWFLSLGFLNMMVPCFDLLYISRILVVWREVYYCHLIIA” it is 58100. Under “MRKNGSILSFRSFPPSPTFLPSFLLFFFSFPFFPVIFFQTPLLFLLLFFIYWG” stands 42000. Under “SISQFCWIWYTRPRPLQDICYYDSASRGPWGCFLLLLRLRFIRFACIGAIITL” stands 78600. With “MSLVLLLFCLYLRCYSVLAMANGVSVLNAADYPFSVMITKPVMCGGALISLDP”, the “transcriptional activation domain activity” value came to 69000. Under “ERRMGTCRSFHLRVGLPQLYAARLLIKASLDVRRLSVWQLGQLVWSIQKFSRQ” stands 32200; under “NFMNNEITASKIDDGNNSKPLSPGWTDQTAYNAFGITTGMFNTTTMDDVYNYL”, 120000; under “IFLACCAVFPGLGNLGFTLMQYRLGQRSFLSAAAENLTWVPFFFFFFGGLSVH”, 78400. Under “ILLSLFANHFPWDFRDALCLEFWVVAFRNLEMLEYFDGDLLLSEHGGTCTVSK” stands 34800.

In the case of “GRIMERSGGWLVLVSHFSYFLNWVLVLFLLFFGGYAYVYYLCISSLLFPFTSF”, the “transcriptional activation domain activity” value stood at 48800. As to “IAAAAEQEEEDEASTSSTNTSNGDANARAHAHAHWESRRERELHADHRGGAGG”, the “transcriptional activation domain activity” value turned out to be 31600.

As for “NGLLRDVHVVFQDSSFCARLTEQIRRRLRMISSNWRETCCMEMLITLSLRLFH”, the “transcriptional activation domain activity” value amounted to 45100. For the sequence “VKHRVIHLLVVFVAFFFAVTPVYFDYLCCGSPLVLFSSTLGMIIHLILFFFCL”, the “transcriptional activation domain activity” value worked out at 49000. Under “TGGLAELQDTLDDARASFAYVRVKYSNDKESQREKFILIVWIGKSVKVMRRAK” stands 33600. The figure for “MTLASLAARRSNCMKRRVGCVVVSQPDRRVISTGYNGTPRGIRNCGEGGCPRC” is 39100; for “PFQFLLLKSLSIQKHSDLIIRGCSHFYVGVLSCILNFFLGSWSAWLKRFWYML” it is 80300; for “RKLRTKIIELSGSVEAACALGVADGIVDLVESGETMRAAGLKAIDTVVDTQAV” it is 29100. Under “FFFFFFFFFFFFFLFLLLSLFFPYLICHRLHLKTQLPHICFIFRLLAASCLST” stands 46400; under “RGGRGRRNGGKERGKEKKGKKEEENDRRGKGKERKERRKNDGGKRREGREREK”, 47600. Take “EAPAPVEEQPVQEPEPEAIPEPEPVPQETPQAYEEPPAPEPKPAPTPKAQPVQ”: the “transcriptional activation domain activity” value stood at 23300. Under “RQSTSRRSDPGPVSRVTELARSDQDTTTTKLVSRLRATAQIRVQVVLAIVFRH” stands 53200.

As to “DEEDIWNYLPSSSSQQEDSSRALKKNTNSEKANIQAKNDETYLFLQDQDESAD”, the “transcriptional activation domain activity” value is 46700. The figure for “SPSRNAERPSPAAPAAMERGPDGRPRLKLAPRSAPRTETPSPAPVAPPAPVHV” is 29400; for “DISKLAIETFYFFFLFLLSFLFSFLFFSFLFLIFFNFLYSSFFLSFFLSFFLF” it is 33900. The figure for “DEEEAPEEGARGRRRKGRGKGKGKQGGGGEEEGGDGEEVEGEGEAEGEQENAG” is 24000. “MVPLRSFPILYALCKVLLFITILLLLIVFVCLGLQHCLLFVGCWLCVQIWCGG”: the “transcriptional activation domain activity” value stood at 23300. The figure for “ESEKAGGKRKQERRSRAGRGEGEGEERENRCRGEEGRGREGGGRREGKEGVGG” is 39400; for “IRNHSLPTNLQVKDKIEDLNEIKFFNDFEKLEFFNKYAKVNTNNDVNENNDLW” it is 46800. Consider “TSLVVENGNGNGSGRGRKKRGRDGGGGGRGGGGGRGGGGEEDGLVGGAGAGGG”, for which the “transcriptional activation domain activity” value is 25000. The figure for “IQEDNEEGERRRRRRKGKAGEETEGEKKEKKRKKNGATKSGKRGKMERNGKLK” is 28400; for “EQDNVDSTQQSSTGRVKRSREDSASGERLRSTSRSRSKSPSGRHKRSRRHRRS” it is 36100; for “MTVDHDFNSEDILFPIESMSSIQYVENNNPNNINNDVIPYSLDIKNTVLDSAD” it is 76400. The figure for “KNDDRGDRGERRSRSRRRRHSVTGVDRESRAESKHRDPKHRKHRIAEAGAASA” is 41500; for “LVQIVCVAGMHVTLYEQSCLYKCENLKRIITSFHHVNRKVRDAFINLYGKLNP” it is 74600; for “MKHETLFFLFCRSLTRFFPMFGASFFFVLFLDLFVFVFCVVYGYSRFIFFLFV” it is 50300. Under “YMYSAFMRFFILGWPSYLVVVASIAVVLLLHILYFLVQLQLKNIFLLLLHCFA” stands 60400; under “MAPAPAPVAAPPAPETREAPPASPRGRSRSRSRSPAFRRPSPPAPRRPVGAPA”, 29100.

For the sequence “STKVLLRVFIPVAGYFWISLNYSLVSLAFHVKFNNYFGNIGFFIWWMLNWLTM”, the “transcriptional activation domain activity” value is 57300. For “MSPPEQSGGAPKHRACDECRARKLACSKEPDGCARCKRESQVCHYSAQKPMGR”, the “transcriptional activation domain activity” value was under 6570.

As for “MTLLVGYLGVFFLLFSSPSLLEFFFFVTYRVFVVFFFSSSFFFLGYPVFFFFF”, the “transcriptional activation domain activity” value worked out at 36600. Under “KHYRRRLLQRDILKRKRWSIGLKTLVLLRDLGVFVHHHTVVKALQMQFIVLFG” stands 57200; under “RSRRAHPRTTSSRASPSCARSSRAPPRATSSSASTTSSTGTRSRTTTPSTSPR”, 18000; under “DLDNDIDFETAYQMLSSNFDDQMSAHIHENTFSATSPPLLTHELGIIPNVATV”, 95500.

In the case of “KCLRLAIHIPLYPLFRTALVLRVQPSNAPLIRSVKDFLIYYLHDLQRFFILSP”, the “transcriptional activation domain activity” value turned out to be 70000. “GGPARRMKPGAPDARREEGGKKKRGATNDTGAAKEKAPAKGRKGKKKPAEESE”: the “transcriptional activation domain activity” value was determined as 44500. Under “LQQLLLRDYFKYFIKVFQDLSTYERKSYFVFRQMAYAIISIAQGRGCIEFQCH” stands 43100; under “TLSGVLMLFWQPNGQRLIGNATLWCWIRPGLEFYRIVLNYGWIWIILGVNICT”, 73100. As to “VPRHLFEKSTLKSLFYVGRHLGLTAAFYVFATHIDRIAWELCARFGYGHRIRG”, the “transcriptional activation domain activity” value is 20700. Under “MSYFVFPLLLPSLPRVLPRHSICILHFLLHFRTPPSPNLTHSLLIFLFLLLVR” stands 64000; under “SQLQDPIAKEHVAFGLRHMYKTLQNEVKSYYNLMQSLHVRLPGLEFLTLWMAF”, 50100. For the sequence “KTTGPDARISHTSVQRFASYLGLRVALDRLRLQLAAATTIRHFISRLSRVLVF”, the “transcriptional activation domain activity” value is 50600. Under “MTRMLPLSFELFKFIVNLCLALVFTSWLFSWSKMLLILGLICVCRDFLSLVIV” stands 31700; under “RRSKHSSRSHRSRRHRDRSVSDENGTERRHKSERRHKHRHRSRSGGSRERRHT”, 47200; under “SGFRDNRKDNRGRGRDRGNRRDNRGNDRNREREDKEKAESKDVKSEDAPVKTE”, 28100. Under “ESVRQHIVTETKNRVETYLAHCNPIVPHQRLTLLLARLLLRKLDFVTRLQWIL” stands 50300; under “PNYEQHPAPAPAPAPGNKPEEHHEEKPEEHHEEKPSYEQHPAPAPAYQANAPH”, 19400; under “NRKTIGKQDPYCAARLGKEAKKTETDRRGGQTPRWDQELRYTVHDSPDYYQLK”, 31200. The figure for “KLSFRLLVLSSSEILVCFPVYPSFVGYDPIFSGFRVKLLIFLLSLWHLLLLFV” is 42300. With “NLLSKELLMPAVSELNEYLDLFKNNFLPHFPIIHPSLLDLDLDSLQRYTNEDG”, the “transcriptional activation domain activity” value stood at 48900. Under “GSTPGKTASTGRGTAGGKGVAAGSKAPASTRGGGGGTAGGGGKAGGANTKTAV” stands 56000; under “MHTLVLDFDEDVVEQALRLFNLNSRALTTFLSLLVMEYGIALGPMRHRWITSP”, 18100; under “TGAGLFFFFHLFLCVWGIEILLVALDFPFFFFWFPYCAWAVSVRLGFGMIPKI”, 66900.
